Measurements: publication PMC9456337

Legend:
[1] = biological target: thiocyanate dehydrogenase (TcDH) from Thioalkalivibrio paradoxus ARh 1 (Thioalkalivibrio paradoxus ARh 1)
[2] = biological target: thiocyanate dehydrogenase (TcDH) from Thioalkalivibrio paradoxus ARh 1 (Thioalkalivibrio paradoxus ARh 1); test: ITC; aliquots (2.6 µL) of CytC552 injected into a 0.2-mL cell with 9.3 µM TcDH; 25 °C; 25 mM borate buffer, pH 9.5; fitted assuming either one or two binding sites of CytC552 in the TcDH dimer
[3] = biological target: recombinant cytochrome c552 (CytC552) from Thioalkalivibrio paradoxus (Thioalkalivibrio paradoxus ARh 1); test: NMR titration; oxidized 13C/15N-labelled CytC552 titrated with TcDH; intensity of the 1H signal of the heme HAB atom fitted with the Morrison equation; 1H/15N-HSQC chemical shift perturbation at saturating TcDH; slow exchange; 50 mM sodium phosphate, pH 7.0, 303 K

Row | specific activity of TcDH in thiocyanate oxidation with CytC552 as electron acceptor, pH optimum 9.5 [1] | Kd [2] | Kd [3] | stoichiometry N [3] | Substance
1 | 7.3 µmol/min/mg | 1.8 µM |  |  | recombinant cytochrome c552 (CytC552) from Thioalkalivibrio paradoxus (natural protein)
2 |  |  | 2 µM | 1 | thiocyanate dehydrogenase (TcDH) from Thioalkalivibrio paradoxus ARh 1 (enzyme)
